Source: patent EP4484441A1 (Eberhard-Karls-Universität Tübingen, dated 2025)

Molecular target: T1, polypeptide 10 (human)
T1 construct: The empty single-chain polypeptide as secreted by WEHI-231 cells, about 50 kD; also called MHC-derived polypeptide; single continuous amino acid chain 12
Assay: inferred from peptide-dependent multimer staining of TCR-expressing Jurkat76 cells (flow cytometry)

T1 sequence (chain, as listed by the source limits assumed): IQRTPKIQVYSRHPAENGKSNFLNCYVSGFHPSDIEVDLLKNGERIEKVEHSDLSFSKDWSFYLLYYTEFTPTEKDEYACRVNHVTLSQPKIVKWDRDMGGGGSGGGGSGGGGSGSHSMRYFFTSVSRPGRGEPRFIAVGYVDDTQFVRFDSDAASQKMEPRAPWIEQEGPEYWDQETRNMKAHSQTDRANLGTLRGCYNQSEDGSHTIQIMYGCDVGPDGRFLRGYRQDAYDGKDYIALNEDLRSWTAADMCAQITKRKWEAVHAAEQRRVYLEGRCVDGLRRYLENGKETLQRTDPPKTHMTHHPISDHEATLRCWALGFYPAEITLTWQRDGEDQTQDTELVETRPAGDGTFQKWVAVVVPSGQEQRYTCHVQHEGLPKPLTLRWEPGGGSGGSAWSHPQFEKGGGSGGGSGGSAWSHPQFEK

B1: oligopeptide 26 (peptide)
peptide: LTDLGQNLLY
binding result: binds
